According to patent US20230183713A1, “SITE-SPECIFIC RECOMBINASES FOR EFFICIENT AND SPECIFIC GENOME EDITING” (TECHNISCHE UNIVERSITÄt DRESDEN, published 2023):

T1: Cre recombinase monomer with Y324F mutation
T1 chain: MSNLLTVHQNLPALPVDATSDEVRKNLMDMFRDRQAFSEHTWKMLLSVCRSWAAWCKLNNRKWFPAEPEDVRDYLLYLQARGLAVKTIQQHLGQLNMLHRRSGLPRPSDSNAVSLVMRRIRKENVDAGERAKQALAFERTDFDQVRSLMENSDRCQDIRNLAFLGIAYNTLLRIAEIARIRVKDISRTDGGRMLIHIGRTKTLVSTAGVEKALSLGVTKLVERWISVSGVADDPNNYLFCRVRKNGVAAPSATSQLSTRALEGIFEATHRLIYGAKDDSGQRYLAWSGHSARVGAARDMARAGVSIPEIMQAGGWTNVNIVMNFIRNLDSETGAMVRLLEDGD

T2: Cre recombinase monomer with W315M mutation
T2 chain: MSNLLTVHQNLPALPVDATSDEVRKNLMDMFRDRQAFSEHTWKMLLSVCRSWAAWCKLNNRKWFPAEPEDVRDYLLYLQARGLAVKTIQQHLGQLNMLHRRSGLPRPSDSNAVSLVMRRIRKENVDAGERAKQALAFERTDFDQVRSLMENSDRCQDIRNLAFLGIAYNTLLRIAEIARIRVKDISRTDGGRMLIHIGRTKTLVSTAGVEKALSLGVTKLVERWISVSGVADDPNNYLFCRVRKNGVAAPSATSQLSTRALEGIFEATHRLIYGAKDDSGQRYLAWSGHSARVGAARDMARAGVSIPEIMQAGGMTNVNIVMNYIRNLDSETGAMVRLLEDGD

T3: Cre recombinase monomer with Q311R mutation
T3 chain: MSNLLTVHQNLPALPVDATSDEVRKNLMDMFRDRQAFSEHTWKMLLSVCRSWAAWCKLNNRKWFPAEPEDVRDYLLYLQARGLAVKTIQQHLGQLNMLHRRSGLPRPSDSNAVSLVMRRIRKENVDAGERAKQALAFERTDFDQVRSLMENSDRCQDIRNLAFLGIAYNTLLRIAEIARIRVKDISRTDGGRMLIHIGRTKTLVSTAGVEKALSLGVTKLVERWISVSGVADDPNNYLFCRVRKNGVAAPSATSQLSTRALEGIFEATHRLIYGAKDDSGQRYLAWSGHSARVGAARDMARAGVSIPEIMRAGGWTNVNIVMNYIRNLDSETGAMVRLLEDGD

T4: Cre recombinase monomer with W315I mutation
T4 chain: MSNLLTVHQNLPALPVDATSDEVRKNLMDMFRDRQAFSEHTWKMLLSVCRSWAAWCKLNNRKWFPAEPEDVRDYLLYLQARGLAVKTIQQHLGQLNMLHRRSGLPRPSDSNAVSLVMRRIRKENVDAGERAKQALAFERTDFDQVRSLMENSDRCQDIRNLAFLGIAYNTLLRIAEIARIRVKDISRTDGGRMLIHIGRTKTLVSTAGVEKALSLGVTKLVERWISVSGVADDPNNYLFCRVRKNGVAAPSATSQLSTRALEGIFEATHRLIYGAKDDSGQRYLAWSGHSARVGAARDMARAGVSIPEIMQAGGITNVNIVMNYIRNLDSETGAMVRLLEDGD

T5: Cre recombinase monomer with Y324T mutation
T5 chain: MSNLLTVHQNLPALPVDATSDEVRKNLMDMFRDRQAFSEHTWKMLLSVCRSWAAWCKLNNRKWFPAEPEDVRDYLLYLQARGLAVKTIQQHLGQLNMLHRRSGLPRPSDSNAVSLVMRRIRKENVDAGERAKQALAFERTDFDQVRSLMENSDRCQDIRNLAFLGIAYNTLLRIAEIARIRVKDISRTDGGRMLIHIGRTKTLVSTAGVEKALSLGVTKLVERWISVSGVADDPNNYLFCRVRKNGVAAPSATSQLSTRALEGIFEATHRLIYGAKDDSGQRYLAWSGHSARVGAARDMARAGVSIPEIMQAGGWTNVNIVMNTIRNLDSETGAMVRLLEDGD

T6: Cre recombinase monomer with Y324V mutation
T6 chain: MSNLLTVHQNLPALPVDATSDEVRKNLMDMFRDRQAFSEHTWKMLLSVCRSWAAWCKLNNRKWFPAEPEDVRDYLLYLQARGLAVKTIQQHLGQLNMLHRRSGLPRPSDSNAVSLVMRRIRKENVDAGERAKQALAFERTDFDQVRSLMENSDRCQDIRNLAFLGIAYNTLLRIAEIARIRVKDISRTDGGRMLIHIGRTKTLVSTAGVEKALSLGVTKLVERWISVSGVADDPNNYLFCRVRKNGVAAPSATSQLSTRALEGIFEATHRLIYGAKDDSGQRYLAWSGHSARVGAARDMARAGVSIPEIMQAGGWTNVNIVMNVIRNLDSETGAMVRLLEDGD

T7: Cre recombinase monomer with Y324M mutation
T7 chain: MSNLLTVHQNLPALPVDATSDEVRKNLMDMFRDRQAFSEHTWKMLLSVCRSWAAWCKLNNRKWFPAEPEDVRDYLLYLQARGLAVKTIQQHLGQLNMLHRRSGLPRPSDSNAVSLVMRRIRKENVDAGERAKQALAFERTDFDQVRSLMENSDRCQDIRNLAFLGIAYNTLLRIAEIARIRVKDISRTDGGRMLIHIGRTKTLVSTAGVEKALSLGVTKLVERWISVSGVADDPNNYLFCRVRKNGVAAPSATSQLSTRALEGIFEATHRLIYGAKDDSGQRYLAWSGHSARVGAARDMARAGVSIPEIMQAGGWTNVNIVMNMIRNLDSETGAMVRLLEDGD


How the values were obtained:
[1] = biological target: T1, Cre recombinase monomer with Y324F …
[2] = biological target: T2, Cre recombinase monomer with W315M …
[3] = biological target: T3, Cre recombinase monomer with Q311R …
[4] = biological target: T4, Cre recombinase monomer with W315I …
[5] = biological target: T5, Cre recombinase monomer with Y324T …
[6] = biological target: T6, Cre recombinase monomer with Y324V …
[7] = biological target: T7, Cre recombinase monomer with Y324M …

Row | Protein | Median dimer activity (recombination on loxP) [2] [%] | Median dimer activity (recombination on loxP) [3] [%] | Median dimer activity (recombination on loxP) [6] [%] | also measured
1 | Cre recombinase monomer with K201V mutation (protein) MSNLLTVHQNLPALPVDATSDEVRKNLMDMFRDRQAFSEHTWKMLLSVCRSWAAWCKLNNRKWFPAEPEDVRDYLLYLQARGLAVKTIQQHLGQLNMLHRRSGLPRPSDSNAVSLVMRRIRKENVDAGERAKQALAFERTDFDQVRSLMENSDRCQDIRNLAFLGIAYNTLLRIAEIARIRVKDISRTDGGRMLIHIGRTVTLVSTAGVEKALSLGVTKLVERWISVSGVADDPNNYLFCRVRKNGVAAPSATSQLSTRALEGIFEATHRLIYGAKDDSGQRYLAWSGHSARVGAARDMARAGVSIPEIMQAGGWTNVNIVMNYIRNLDSETGAMVRLLEDGD | 64 | 84 | – | Median dimer activity (recombination on loxP) [1]: 48%
2 | Cre recombinase monomer with R292M mutation (protein) MSNLLTVHQNLPALPVDATSDEVRKNLMDMFRDRQAFSEHTWKMLLSVCRSWAAWCKLNNRKWFPAEPEDVRDYLLYLQARGLAVKTIQQHLGQLNMLHRRSGLPRPSDSNAVSLVMRRIRKENVDAGERAKQALAFERTDFDQVRSLMENSDRCQDIRNLAFLGIAYNTLLRIAEIARIRVKDISRTDGGRMLIHIGRTKTLVSTAGVEKALSLGVTKLVERWISVSGVADDPNNYLFCRVRKNGVAAPSATSQLSTRALEGIFEATHRLIYGAKDDSGQRYLAWSGHSAMVGAARDMARAGVSIPEIMQAGGWTNVNIVMNYIRNLDSETGAMVRLLEDGD | – | 96 | – | Median dimer activity (recombination on loxP) [4]: 42%
3 | Cre recombinase monomer with H289K mutation (protein) MSNLLTVHQNLPALPVDATSDEVRKNLMDMFRDRQAFSEHTWKMLLSVCRSWAAWCKLNNRKWFPAEPEDVRDYLLYLQARGLAVKTIQQHLGQLNMLHRRSGLPRPSDSNAVSLVMRRIRKENVDAGERAKQALAFERTDFDQVRSLMENSDRCQDIRNLAFLGIAYNTLLRIAEIARIRVKDISRTDGGRMLIHIGRTKTLVSTAGVEKALSLGVTKLVERWISVSGVADDPNNYLFCRVRKNGVAAPSATSQLSTRALEGIFEATHRLIYGAKDDSGQRYLAWSGKSARVGAARDMARAGVSIPEIMQAGGWTNVNIVMNYIRNLDSETGAMVRLLEDGD | 74 | 95 | – | –
4 | Cre recombinase monomer with K201W mutation (protein) MSNLLTVHQNLPALPVDATSDEVRKNLMDMFRDRQAFSEHTWKMLLSVCRSWAAWCKLNNRKWFPAEPEDVRDYLLYLQARGLAVKTIQQHLGQLNMLHRRSGLPRPSDSNAVSLVMRRIRKENVDAGERAKQALAFERTDFDQVRSLMENSDRCQDIRNLAFLGIAYNTLLRIAEIARIRVKDISRTDGGRMLIHIGRTWTLVSTAGVEKALSLGVTKLVERWISVSGVADDPNNYLFCRVRKNGVAAPSATSQLSTRALEGIFEATHRLIYGAKDDSGQRYLAWSGHSARVGAARDMARAGVSIPEIMQAGGWTNVNIVMNYIRNLDSETGAMVRLLEDGD | 49 | 95 | – | Median dimer activity (recombination on loxP) [5]: 68%
5 | Cre recombinase monomer with W315Q mutation (protein) MSNLLTVHQNLPALPVDATSDEVRKNLMDMFRDRQAFSEHTWKMLLSVCRSWAAWCKLNNRKWFPAEPEDVRDYLLYLQARGLAVKTIQQHLGQLNMLHRRSGLPRPSDSNAVSLVMRRIRKENVDAGERAKQALAFERTDFDQVRSLMENSDRCQDIRNLAFLGIAYNTLLRIAEIARIRVKDISRTDGGRMLIHIGRTKTLVSTAGVEKALSLGVTKLVERWISVSGVADDPNNYLFCRVRKNGVAAPSATSQLSTRALEGIFEATHRLIYGAKDDSGQRYLAWSGHSARVGAARDMARAGVSIPEIMQAGGQTNVNIVMNYIRNLDSETGAMVRLLEDGD | – | – | 97 | –
6 | Cre recombinase monomer with R292Y mutation (protein) MSNLLTVHQNLPALPVDATSDEVRKNLMDMFRDRQAFSEHTWKMLLSVCRSWAAWCKLNNRKWFPAEPEDVRDYLLYLQARGLAVKTIQQHLGQLNMLHRRSGLPRPSDSNAVSLVMRRIRKENVDAGERAKQALAFERTDFDQVRSLMENSDRCQDIRNLAFLGIAYNTLLRIAEIARIRVKDISRTDGGRMLIHIGRTKTLVSTAGVEKALSLGVTKLVERWISVSGVADDPNNYLFCRVRKNGVAAPSATSQLSTRALEGIFEATHRLIYGAKDDSGQRYLAWSGHSAYVGAARDMARAGVSIPEIMQAGGWTNVNIVMNYIRNLDSETGAMVRLLEDGD | – | 96 | – | Median dimer activity (recombination on loxP) [7]: 90%
7 | Cre recombinase monomer with W315G mutation (protein) MSNLLTVHQNLPALPVDATSDEVRKNLMDMFRDRQAFSEHTWKMLLSVCRSWAAWCKLNNRKWFPAEPEDVRDYLLYLQARGLAVKTIQQHLGQLNMLHRRSGLPRPSDSNAVSLVMRRIRKENVDAGERAKQALAFERTDFDQVRSLMENSDRCQDIRNLAFLGIAYNTLLRIAEIARIRVKDISRTDGGRMLIHIGRTKTLVSTAGVEKALSLGVTKLVERWISVSGVADDPNNYLFCRVRKNGVAAPSATSQLSTRALEGIFEATHRLIYGAKDDSGQRYLAWSGHSARVGAARDMARAGVSIPEIMQAGGGTNVNIVMNYIRNLDSETGAMVRLLEDGD | – | – | 37 | Median dimer activity (recombination on loxP) [7]: 35%
8 | Cre recombinase monomer with K201Y mutation (protein) MSNLLTVHQNLPALPVDATSDEVRKNLMDMFRDRQAFSEHTWKMLLSVCRSWAAWCKLNNRKWFPAEPEDVRDYLLYLQARGLAVKTIQQHLGQLNMLHRRSGLPRPSDSNAVSLVMRRIRKENVDAGERAKQALAFERTDFDQVRSLMENSDRCQDIRNLAFLGIAYNTLLRIAEIARIRVKDISRTDGGRMLIHIGRTYTLVSTAGVEKALSLGVTKLVERWISVSGVADDPNNYLFCRVRKNGVAAPSATSQLSTRALEGIFEATHRLIYGAKDDSGQRYLAWSGHSARVGAARDMARAGVSIPEIMQAGGWTNVNIVMNYIRNLDSETGAMVRLLEDGD | – | 90 | 26 | –
